Reference: patent publication EP3470428A1 (Numab Innovation AG, dated 2019)
Each block holds one binder with its values, some of them ahead of it.

Legend:
[1] = biological target: T1, human PD-L1 expressed on cells (human, UniProt Q9NZQ7 19-290); assay: cell-based or functional assay
[2] = biological target: T2, human CD137 expressed on cells (human, UniProt Q07011 24-255); assay: cell-based or functional assay
[3] = biological target: T2, human CD137 expressed on cells; assay: cell-based or functional assay; remark: listed apart in the source
[4] = biological target: T2, human CD137 expressed on cells; assay: cell-based or functional assay; remark: listed apart in the source
[5] = biological target: T2, human CD137 expressed on cells; assay: cell-based or functional assay; remark: listed apart in the source
human serum albumin = biological target: T3, human serum albumin (human, UniProt P02768 25-609); assay: SPR (Biacore T200); SA amine-coupled; pH 5.5
T3 construct: Amine-coupled to a CM5 chip; assay at pH 5.5; also called HSA; human SA

biotinylated human PD-L1 [6] = biological target: T4, biotinylated human PD-L1 (human, UniProt Q9NZQ7 19-238, limits assumed, biotinylated); assay: PD-L1/PD-1 competition ELISA with human serum albumin
T4 construct: also called biotinylated PD-L1

biotinylated human PD-L1 [7] = biological target: T4, biotinylated human PD-L1; assay: competition ELISA; coated human B7.1 as competitor; biotinylated PD-L1 pre-incubated with inhibitor
biotinylated human PD-L1 [8] = biological target: T4, biotinylated human PD-L1; assay: competition ELISA; coated human PD-1 as competitor; biotinylated human PD-L1 pre-incubated with inhibitor
[9] = biological target: T1, human PD-L1 expressed on cells; assay: cell-based or functional assay; remark: listed apart in the source
[10] = biological target: T2, human CD137 expressed on cells; assay: cell-based or functional assay; remark: listed apart in the source
[11] = biological target: T2, human CD137 expressed on cells; assay: cell-based or functional assay; remark: listed apart in the source
[12] = biological target: T2, human CD137 expressed on cells; assay: cell-based or functional assay; remark: listed apart in the source

IC50 (ng/ml), neutralization of PD-L1/PD-1 interaction, NFAT-luciferase reporter gene assay, with HSA [1]: 665 ng/mL | EC50 in ng/ml, CD137 activation, NFkB-luciferase Jurkat reporter assay, PD-L1 expressing CHO cells, 6h, + HSA [2]: 112 ng/mL | EC50 in ng/ml, CD137 activation, NFkB-luciferase Jurkat reporter assay, PD-L1 expressing CHO cells, 24h, + HSA [3]: 792 ng/mL | EC50 in ng/ml, CD137 activation, NFkB-luciferase Jurkat reporter assay, HCC827 with IFNy stimulation, 24h, +HSA [4]: 115 ng/mL | EC50 in ng/ml, CD137 activation, NFkB-luciferase Jurkat reporter assay, HCC827 without IFNy stimulation, 24h, +HSA [4]: 76.6 ng/mL | max. activation (%), NF-kB reporter gene, CHO-PD-L1; HSA: yes, 24h [5]: 663% | binding result (human serum albumin): binds | fold change of IC50 in presence of human serum albumin (biotinylated human PD-L1 [6]): ~2 fold | IC50 (biotinylated human PD-L1 [7]): 0.0163 µg/mL | IC50 (biotinylated human PD-L1 [8]): 0.00861 µg/mL
B1: PRO1057: 38_02_A04 sc01 scDb-i/33-03-G02 sc01 scDb-o/mxr HSA (23-13-A01-sc03, sk17sh4) (other)
chain: DIQMTQSPSSLSASVGDRVTITCQASQSINDYLAWYQQKPGKAPKLLIYKASTLASGVPSRFSGSGSGTDFTLTISSLQPEDFATYYCQQGYIITDIDNVFGTGTKVTVLGGGGGSQVQLQESGPGLVKPSETLSLTCKVSGFSFSNSYWICWIRQPPGKGLEWIGCTFVGSSDSTYYANWAKGRVTISVDSSKNQFSLKLSSVTAADTAVYYCARHPSDAVYGYANNLWGQGTLVTVSSGGGGSGGGGSGGGGSGGGGSIQMTQSPSSLSASVGDRVTITCQASQSINNVLAWYQQKPGKAPKLLIYRASTLASGVPSRFSGSGSGTDFTLTISSLQPEDFATYYCQSSYGNYGDFGTGTKVTVLGGGGGSQVQLQESGPGLVKPSETLSLTCKVSGFSFSSGYDMCWIRQPPGKGLEWIGCVVAGSVDITYYASWAKGRVTISVDSSKNQFSLKLSSVTAADTAVYYCARKDAYSDAFNLWGQGTLVTVSSGGGGSGGGGSVVMTQSPSSLSASVGDRVTITCQASQIISSRSAWYQQKPGQPPKLLIYQASKLASGVPSRFSGSGSGTDFTLTISSLQPEDFATYYCQCTYIDSNFGAFGGGTKLTVLGGGGGSGGGGSGGGGSGGGGSEVQLVESGGGLVQPGGSLRLSCAASGFSFSSSYWICWVRQAPGKGLEWVGCVFTGDGTTYYASWAKGRFTISRDNSKNTVYLQMNSLRAEDTATYFCARPVSVYYYGMDLWGQGTLVTVSS
notes: Trispecific scTriabody (scDb-scFv)

IC50, neutralization of PD-L1/PD-1 interaction, NFAT-luciferase reporter gene assay [9]: 0.0481 µg/mL | EC50 in ng/ml, CD137 activation, NFkB-luciferase Jurkat reporter assay, CHO-PD-L1 cells [10]: 6 ng/mL | EC50 in ng/ml, CD137 activation, NFkB-luciferase Jurkat reporter assay, HCC827 cells without IFNg [11]: 6.97 ng/mL | EC50 in ng/ml, CD137 activation, NFkB-luciferase Jurkat reporter assay, HCC827 cells stimulated with IFNg [12]: 5.48 ng/mL | max. activation (%), NF-kB reporter gene, CHO-PD-L1; HSA: no [5]: 242% | max. activation (%), NF-kB reporter gene, HCC827 +IFNg; HSA: no [5]: 208% | max. activation (%), NF-kB reporter gene, HCC827 -IFNg; HSA: no [5]: 135% | IC50 (biotinylated human PD-L1 [8]): 0.00128 µg/mL
B2: PRO1126: 38-02-A04 sc01 scDb-i/33_03_G02 sc03 Full scDb-o (bispecific antibody)
chain: DFQLTQSPSSLSASVGDRVTITCQASQSINDYLAWYQQKPGKSPKLLIYKASTLASGVPSRFSGSGSGTDFTLTISSLQPEDFATYYCQQGYIITDIDNVFGTGTKVTVLGGGGGSQVQLQESGPGLVKPSETLSLTCKVSGFSFSNSYWICWIRQPPGKGLEWIGCTFVGSSDSTYYANWAKGRVTISVDSSKNQFSLKLSSVTAADTAVYYCARHPSDAVYGYANNLWGQGTLVTVSSGGGGSGGGGSGGGGSGGGGSIQMTQSPSSLSASVGDRVTITCQASQSINNVLAWYQQKPGKAPKLLIYRASTLASGVPSRFSGSGSGTDFTLTISSLQPEDFATYYCQSSYGNYGDFGTGTKVTVLGGGGGSQSQLQESGPGLVKPSETLSLTCKASGFSFSSGYDMCWVRQPPGKGLEWIACVVAGSVDITYYASWAKGRVTISKDSSKNQVSLKLSSVTAADTAVYFCARKDAYSDAFNLWGQGTLVTVSS
notes: scDb, STR graft of the PD-L1 domain
